Earlier results as cited in PMC12990809.

Experiments:
Assay in all cases: pulldown
Conditions in all cases: 20 nM protein, 1.5 uM RNA pool; 20 mM HEPES pH 7.8, 70 mM KCl, 10 mM NaCl, 10% glycerol, 2 mM DTT, 0.1 ug/uL BSA; 30 min, 4 C (protocol of this paper; not …); cited from earlier work
[1] = biological target: T1, MAL13P1.35 (Plasmodium falciparum) (UniProt C0H5A4)
T1 sequence: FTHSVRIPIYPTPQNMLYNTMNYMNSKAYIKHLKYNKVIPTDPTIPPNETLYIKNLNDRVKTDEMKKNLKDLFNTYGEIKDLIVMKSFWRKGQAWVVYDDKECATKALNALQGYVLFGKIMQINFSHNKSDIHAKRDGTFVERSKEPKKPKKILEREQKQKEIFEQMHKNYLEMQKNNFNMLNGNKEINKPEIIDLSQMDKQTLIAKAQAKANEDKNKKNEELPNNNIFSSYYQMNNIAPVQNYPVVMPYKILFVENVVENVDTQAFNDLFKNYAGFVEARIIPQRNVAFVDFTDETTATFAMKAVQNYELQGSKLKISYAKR

[2] = biological target: T2, Tb11.01.7680 (Trypanosoma brucei) (UniProt Q381I4)
T2 sequence: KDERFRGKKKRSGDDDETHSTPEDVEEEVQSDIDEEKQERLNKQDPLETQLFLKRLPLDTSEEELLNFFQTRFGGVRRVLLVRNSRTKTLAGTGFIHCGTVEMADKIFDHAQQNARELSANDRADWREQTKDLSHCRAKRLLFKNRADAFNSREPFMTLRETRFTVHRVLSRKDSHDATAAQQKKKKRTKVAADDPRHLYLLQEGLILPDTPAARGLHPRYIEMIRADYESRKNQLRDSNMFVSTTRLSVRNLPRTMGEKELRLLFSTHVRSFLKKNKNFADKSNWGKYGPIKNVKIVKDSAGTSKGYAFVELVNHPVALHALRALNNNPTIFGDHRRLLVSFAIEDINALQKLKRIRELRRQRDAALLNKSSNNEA

[3] = biological target: T3, Smp_067420 (Schistosoma mansoni) (UniProt G4LZ80)
T3 sequence: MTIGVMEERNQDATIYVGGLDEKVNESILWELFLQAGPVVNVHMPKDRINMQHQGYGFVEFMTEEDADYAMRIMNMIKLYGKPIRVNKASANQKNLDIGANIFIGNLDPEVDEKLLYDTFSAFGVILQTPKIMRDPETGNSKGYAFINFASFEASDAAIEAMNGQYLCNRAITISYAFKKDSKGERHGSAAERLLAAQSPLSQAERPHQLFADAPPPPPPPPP

[4] = biological target: T4, estExt_gwp_gw1.C_700168 (Physcomitrella patens) (UniProt A0A2K1JQP1)
T4 sequence: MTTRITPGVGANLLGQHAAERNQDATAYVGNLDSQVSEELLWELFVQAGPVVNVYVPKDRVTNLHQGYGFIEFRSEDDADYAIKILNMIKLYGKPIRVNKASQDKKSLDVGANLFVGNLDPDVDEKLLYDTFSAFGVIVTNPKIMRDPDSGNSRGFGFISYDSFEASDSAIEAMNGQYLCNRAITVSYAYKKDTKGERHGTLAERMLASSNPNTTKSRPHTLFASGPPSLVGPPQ

Pcbp1 (Mus musculus) = Pcbp1 (Mus musculus) (UniProt P60335)
Chain of Pcbp1 (Mus musculus) (P60335 whole entry): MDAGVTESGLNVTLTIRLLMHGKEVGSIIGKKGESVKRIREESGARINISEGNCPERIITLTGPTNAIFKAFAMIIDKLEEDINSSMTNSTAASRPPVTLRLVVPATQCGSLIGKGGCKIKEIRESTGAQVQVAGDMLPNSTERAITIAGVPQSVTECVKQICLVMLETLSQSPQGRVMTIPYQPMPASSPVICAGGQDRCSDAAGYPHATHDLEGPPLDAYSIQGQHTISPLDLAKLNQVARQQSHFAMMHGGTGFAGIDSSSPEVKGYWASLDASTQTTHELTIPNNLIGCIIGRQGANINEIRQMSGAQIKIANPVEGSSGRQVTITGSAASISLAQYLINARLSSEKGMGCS

[5] = biological target: hnrnpabb (Tetraodon nigroviridis) (UniProt Q4SDS6)
Chain of hnrnpabb (Tetraodon nigroviridis) (Q4SDS6 entry or part of it): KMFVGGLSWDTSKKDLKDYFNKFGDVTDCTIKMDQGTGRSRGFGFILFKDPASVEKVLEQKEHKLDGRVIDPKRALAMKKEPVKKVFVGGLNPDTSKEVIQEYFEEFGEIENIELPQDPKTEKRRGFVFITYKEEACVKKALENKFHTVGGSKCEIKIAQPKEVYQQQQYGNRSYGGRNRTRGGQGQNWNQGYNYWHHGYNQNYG

[6] = biological target: T5, Phyra93644 G140S (Phytophthora ramorum) (UniProt H3HB24)
T5 sequence: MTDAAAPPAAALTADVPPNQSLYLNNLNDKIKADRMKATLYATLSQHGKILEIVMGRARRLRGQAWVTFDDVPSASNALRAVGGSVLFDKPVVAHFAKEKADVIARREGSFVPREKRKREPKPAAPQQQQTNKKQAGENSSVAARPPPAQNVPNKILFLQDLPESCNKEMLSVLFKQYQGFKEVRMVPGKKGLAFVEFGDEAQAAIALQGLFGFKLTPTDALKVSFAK

[7] = biological target: T6, PF10_0214 (Plasmodium falciparum) (UniProt Q8IJI3)
T6 sequence: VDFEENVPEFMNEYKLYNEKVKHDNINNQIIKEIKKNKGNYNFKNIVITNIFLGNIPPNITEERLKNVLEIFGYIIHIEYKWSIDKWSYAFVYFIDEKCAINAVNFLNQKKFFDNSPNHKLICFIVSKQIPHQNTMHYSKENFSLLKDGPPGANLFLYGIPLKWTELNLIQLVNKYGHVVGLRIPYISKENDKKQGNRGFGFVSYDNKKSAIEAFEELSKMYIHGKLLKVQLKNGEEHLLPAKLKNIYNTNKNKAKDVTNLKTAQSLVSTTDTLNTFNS

[8] = biological target: T7, Tb11.03.0170 (Trypanosoma brucei) (UniProt Q387F5)
T7 sequence: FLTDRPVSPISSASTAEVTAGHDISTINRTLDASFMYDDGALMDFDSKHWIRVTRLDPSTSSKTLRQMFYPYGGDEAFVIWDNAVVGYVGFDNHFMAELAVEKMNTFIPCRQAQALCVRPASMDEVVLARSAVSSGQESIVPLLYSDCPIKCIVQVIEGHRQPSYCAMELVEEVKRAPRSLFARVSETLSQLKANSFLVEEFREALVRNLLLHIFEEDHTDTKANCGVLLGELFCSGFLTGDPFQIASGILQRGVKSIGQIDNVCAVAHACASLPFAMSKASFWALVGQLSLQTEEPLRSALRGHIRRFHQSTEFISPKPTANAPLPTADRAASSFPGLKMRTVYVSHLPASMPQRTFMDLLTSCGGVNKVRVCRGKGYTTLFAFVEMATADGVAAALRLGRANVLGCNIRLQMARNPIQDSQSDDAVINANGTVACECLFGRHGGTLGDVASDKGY

rbm4.3 (Danio rerio) = biological target: T8, rbm4.3 (Danio rerio) (UniProt A0ACM8Q3W8)
T8 sequence: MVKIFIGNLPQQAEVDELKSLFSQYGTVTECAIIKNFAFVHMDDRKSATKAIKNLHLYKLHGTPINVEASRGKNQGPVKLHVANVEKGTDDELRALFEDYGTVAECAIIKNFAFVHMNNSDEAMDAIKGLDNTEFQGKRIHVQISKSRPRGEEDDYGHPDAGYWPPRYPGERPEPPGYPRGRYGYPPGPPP

[9] = biological target: T9, TVAG_514790 (Trichomonas vaginalis) (UniProt A2GMP0)
T9 sequence: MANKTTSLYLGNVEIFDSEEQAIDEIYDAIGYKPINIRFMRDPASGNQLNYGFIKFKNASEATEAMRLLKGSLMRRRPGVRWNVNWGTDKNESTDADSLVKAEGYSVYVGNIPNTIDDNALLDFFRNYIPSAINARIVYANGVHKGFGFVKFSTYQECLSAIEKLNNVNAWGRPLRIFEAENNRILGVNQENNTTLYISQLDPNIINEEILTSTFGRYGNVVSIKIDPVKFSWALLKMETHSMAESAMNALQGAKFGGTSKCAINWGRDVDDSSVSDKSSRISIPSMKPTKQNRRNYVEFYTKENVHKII

[10] = biological target: T10, fox-1 ins385_GNEYIMYHQAKQQELP (Caenorhabditis elegans) (UniProt Q10572)
T10 sequence: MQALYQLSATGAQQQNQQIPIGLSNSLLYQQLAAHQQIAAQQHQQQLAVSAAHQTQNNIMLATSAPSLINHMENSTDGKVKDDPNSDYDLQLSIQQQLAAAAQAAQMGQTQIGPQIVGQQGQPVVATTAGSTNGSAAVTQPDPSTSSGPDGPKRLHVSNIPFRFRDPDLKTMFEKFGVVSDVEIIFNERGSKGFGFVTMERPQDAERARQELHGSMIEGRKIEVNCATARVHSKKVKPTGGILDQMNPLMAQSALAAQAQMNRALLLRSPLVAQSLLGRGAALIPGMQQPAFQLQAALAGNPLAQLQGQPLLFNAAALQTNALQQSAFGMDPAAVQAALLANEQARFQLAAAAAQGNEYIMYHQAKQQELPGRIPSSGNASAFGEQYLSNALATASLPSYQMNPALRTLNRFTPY

[11] = biological target: T11, PFF0320c (Plasmodium falciparum) (UniProt C6KSR3)
T11 sequence: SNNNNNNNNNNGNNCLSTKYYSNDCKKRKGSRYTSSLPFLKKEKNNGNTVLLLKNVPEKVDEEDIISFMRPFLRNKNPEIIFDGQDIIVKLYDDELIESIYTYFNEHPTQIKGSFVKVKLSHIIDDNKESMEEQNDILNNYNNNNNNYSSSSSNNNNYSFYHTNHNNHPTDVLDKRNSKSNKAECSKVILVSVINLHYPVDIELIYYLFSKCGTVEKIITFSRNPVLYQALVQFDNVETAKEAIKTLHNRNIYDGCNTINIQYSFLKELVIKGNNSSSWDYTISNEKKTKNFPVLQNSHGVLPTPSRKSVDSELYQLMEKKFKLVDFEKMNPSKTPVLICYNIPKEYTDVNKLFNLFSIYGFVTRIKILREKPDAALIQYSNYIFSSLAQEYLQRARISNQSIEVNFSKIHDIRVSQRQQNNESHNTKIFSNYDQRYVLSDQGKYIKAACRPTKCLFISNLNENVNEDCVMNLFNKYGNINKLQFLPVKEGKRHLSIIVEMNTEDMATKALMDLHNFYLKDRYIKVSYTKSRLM

[12] = biological target: T12, NCU02404 (Neurospora crassa) (UniProt V5ILJ4)
T12 sequence: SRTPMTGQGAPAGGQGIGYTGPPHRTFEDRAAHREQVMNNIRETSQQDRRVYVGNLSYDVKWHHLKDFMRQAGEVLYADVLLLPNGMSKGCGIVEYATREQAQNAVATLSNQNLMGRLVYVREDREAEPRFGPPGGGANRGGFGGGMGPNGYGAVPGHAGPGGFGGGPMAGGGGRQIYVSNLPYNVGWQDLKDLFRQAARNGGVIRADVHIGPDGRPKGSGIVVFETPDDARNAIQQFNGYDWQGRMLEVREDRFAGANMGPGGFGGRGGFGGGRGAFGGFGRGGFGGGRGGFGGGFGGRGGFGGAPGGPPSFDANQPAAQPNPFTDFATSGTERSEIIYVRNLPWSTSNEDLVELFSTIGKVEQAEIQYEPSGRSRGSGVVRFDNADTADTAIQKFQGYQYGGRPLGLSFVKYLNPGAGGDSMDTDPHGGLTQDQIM

Rbm45 (Mus musculus) = biological target: T13, Rbm45 (Mus musculus) (UniProt Q8BHN5)
T13 sequence: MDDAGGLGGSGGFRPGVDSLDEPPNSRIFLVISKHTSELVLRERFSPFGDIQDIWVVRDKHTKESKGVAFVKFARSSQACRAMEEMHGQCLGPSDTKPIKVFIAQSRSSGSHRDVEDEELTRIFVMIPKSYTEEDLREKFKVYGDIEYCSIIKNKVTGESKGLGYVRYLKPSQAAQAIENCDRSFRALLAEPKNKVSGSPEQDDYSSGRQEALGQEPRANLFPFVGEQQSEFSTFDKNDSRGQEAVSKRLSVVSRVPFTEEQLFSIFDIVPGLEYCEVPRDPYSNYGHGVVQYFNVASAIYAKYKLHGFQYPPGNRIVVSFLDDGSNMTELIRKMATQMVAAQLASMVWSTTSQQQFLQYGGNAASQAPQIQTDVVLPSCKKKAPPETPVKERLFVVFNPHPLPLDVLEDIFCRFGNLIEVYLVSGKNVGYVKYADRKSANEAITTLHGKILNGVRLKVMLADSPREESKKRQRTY

[13] = biological target: T14, Tb927.3.3670 (Trypanosoma brucei) (UniProt Q57WA3)
T14 sequence: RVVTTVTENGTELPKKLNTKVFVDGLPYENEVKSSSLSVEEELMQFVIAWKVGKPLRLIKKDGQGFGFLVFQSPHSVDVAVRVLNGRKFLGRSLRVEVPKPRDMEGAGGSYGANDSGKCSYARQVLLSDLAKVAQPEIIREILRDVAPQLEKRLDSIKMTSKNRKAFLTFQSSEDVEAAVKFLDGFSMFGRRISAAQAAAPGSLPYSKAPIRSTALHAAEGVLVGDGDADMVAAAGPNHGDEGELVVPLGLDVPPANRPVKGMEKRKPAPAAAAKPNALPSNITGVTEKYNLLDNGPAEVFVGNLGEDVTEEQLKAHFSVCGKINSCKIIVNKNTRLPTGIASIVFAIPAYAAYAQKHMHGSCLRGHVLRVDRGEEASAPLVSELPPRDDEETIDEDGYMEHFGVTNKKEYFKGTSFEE

pcbp2 (Danio rerio) = pcbp2 (Danio rerio) (UniProt A0A8M1PCB6)
Chain of pcbp2 (Danio rerio) (A0A8M1PCB6 entry or part of it): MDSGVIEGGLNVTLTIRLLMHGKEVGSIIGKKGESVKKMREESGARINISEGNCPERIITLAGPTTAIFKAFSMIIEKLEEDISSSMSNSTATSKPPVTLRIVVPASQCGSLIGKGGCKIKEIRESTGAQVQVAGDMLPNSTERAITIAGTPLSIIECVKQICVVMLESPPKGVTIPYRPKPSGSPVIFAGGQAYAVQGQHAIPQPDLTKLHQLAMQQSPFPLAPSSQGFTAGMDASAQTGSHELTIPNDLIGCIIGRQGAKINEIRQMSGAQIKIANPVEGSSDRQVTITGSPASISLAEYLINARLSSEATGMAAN

For AUUACAC [RNAcompete motif RNCMPT00234], the binding signal (z-score (mean of top ten 7-mers)) [1] is listed as 15.8.
For AGUAGAU [RNAcompete motif RNCMPT00252], the binding signal (z-score (mean of top ten 7-mers)) [2] is listed as 7.34.
For AUUUUUU [RNAcompete motif RNCMPT00232], the binding signal (z-score (mean of top ten 7-mers)) [3] is listed as 8.88.
For GAUGGAGU [RNAcompete motif RNCMPT00237], the binding signal (z-score (mean of top ten 7-mers)) [4] is listed as 9.26.
For CUUUCCC [RNAcompete motif RNCMPT00239], the binding signal (z-score (mean of top ten 7-mers)) (Pcbp1 (Mus musculus)) is given as 6.21.
For AGAUAGA [RNAcompete motif RNCMPT00245], the binding signal (z-score (mean of top ten 7-mers)) [5] is given as 8.14.
In the case of UUGCAC [RNAcompete motif RNCMPT00249], the binding signal (z-score (mean of top ten 7-mers)) [6] is given as 12.
For AUUCCGA [RNAcompete motif RNCMPT00240], the binding signal (z-score (mean of top ten 7-mers)) [7] is given as 11.3.
For UUCACAC [RNAcompete motif RNCMPT00251], the binding signal (z-score (mean of top ten 7-mers)) [8] is given as 9.19.
In the case of ACGACG [RNAcompete motif RNCMPT00248], the binding signal (z-score (mean of top ten 7-mers)) (rbm4.3 (Danio rerio)) is given as 10.2.
In the case of UUUUUU [RNAcompete motif RNCMPT00236], the binding signal (z-score (mean of top ten 7-mers)) [9] is listed as 10.3.
In the case of UGCAUG [RNAcompete motif RNCMPT00017], the binding signal (z-score (mean of top ten 7-mers)) [10] is listed as 24.8.
In the case of ACUAAAC [RNAcompete motif RNCMPT00235], the binding signal (z-score (mean of top ten 7-mers)) [11] is listed as 8.17.
In the case of GGAGGA [RNAcompete motif RNCMPT00238], the binding signal (z-score (mean of top ten 7-mers)) [12] is given as 6.21.
For GACGAC [RNAcompete motif RNCMPT00241], the binding signal (z-score (mean of top ten 7-mers)) (Rbm45 (Mus musculus)) is given as 10.6.
In the case of GAAGGA [RNAcompete motif RNCMPT00230], the binding signal (z-score (mean of top ten 7-mers)) [13] is listed as 6.23.
In the case of CUUUCCC [RNAcompete motif RNCMPT00246], the binding signal (z-score (mean of top ten 7-mers)) (pcbp2 (Danio rerio)) is given as 6.92.
